Measured values published in patent publication US20100279930A1 (published 2010).
No end group written: not given here.

Target: T1, human Y4 receptor (human, UniProt P50391 1-375)
T1 construct: whole, on cells; Used as a cell membrane preparation from transfected HEK-293T cells, not as intact cells; also called Human Y Receptor-4
Assay: 125I-PP displacement assay, human Y4 receptor membranes

T1 sequence (P50391 whole entry): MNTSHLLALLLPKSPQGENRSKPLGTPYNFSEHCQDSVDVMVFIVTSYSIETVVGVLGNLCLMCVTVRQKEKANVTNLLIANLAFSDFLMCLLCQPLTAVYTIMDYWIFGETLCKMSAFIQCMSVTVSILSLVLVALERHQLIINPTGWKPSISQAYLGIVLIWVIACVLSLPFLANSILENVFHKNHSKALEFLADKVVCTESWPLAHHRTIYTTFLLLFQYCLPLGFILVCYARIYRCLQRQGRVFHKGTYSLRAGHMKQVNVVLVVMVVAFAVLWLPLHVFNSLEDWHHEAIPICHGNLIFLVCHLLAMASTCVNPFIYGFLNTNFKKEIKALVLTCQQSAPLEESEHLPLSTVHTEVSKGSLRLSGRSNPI

Binder | binding result
KAPLEPVYPGDNATPEQMAQYAADLRRYINMLTRPRY (Synthetic analogue of human PP with an additional amino acid at position 0) [compound of SEQ ID NO:52 (code 6647)] | binds
AAPLEPVYPGDNATPEQMAKYAADLRRYINKLTRPRY (Synthetic analogue of human PP with additional Ala at position 0, Lys at 19 and Lys at 30) [compound of SEQ ID NO:348 (Ala 0, Lys19, Lys 30, code 4056385)] | binds
AAPLEPVYPGDNATPEQMAQYAAALRRYINKLTRPRY (Synthetic analogue of human PP with additional Ala at position 0, Ala at 23 and Lys at 30) [compound of SEQ ID NO:168 (Ala 0, Ala 23 and Lys 30, code 7215)] | binds
HAPLEPVYPGDNATPEQMAQYAADLRRYINMLTRPRY (Synthetic analogue of human PP with an additional amino acid at position 0) [compound of SEQ ID NO:53 (code 6650)] | binds
AAPLEPVYPGDNATPEQMAQYAADLRRYINKLTRPRY (ends and bridges not checked, Synthetic analogue of human PP; introduced as additional Ala at position 0 and Lys at position 30, later in the same paragraph labelled 'Ala 0, Lys 19') [compound of SEQ ID NO:171 (code 7218)] | binds
PAPLEPVYPGDNATPEQMAQYAADLRRYINMLTRPRY (Synthetic analogue of human PP with an additional amino acid at position 0) [compound of SEQ ID NO:56 (code 6653)] | binds
APLEPVYPGDNATPEQMAQYAADLRRYINMLTRQRY (ends and bridges not checked, Synthetic analogue of human PP; cited for changes at positions 34-36) [compound of SEQ ID NO:24 (code 6453)] | binds
APLEPVYPGDNATPEQMAQYAADLRRYINILTRPRY (ends and bridges not checked, Synthetic analogue of human PP; cited for changes at positions 29-31) [compound of SEQ ID NO:259 (code 4055713)] | binds
APLEPEYPGDNATPEQMAQYAADLRRYINMLTRPRY (ends and bridges not checked, Synthetic analogue of human PP; cited for a change at position 6) [compound of SEQ ID NO:276 (4055746)] | binds
APLEPVYPGDNATPEQMAQYAADLRRYINVLTRPRY (ends and bridges not checked, Synthetic analogue of human PP; cited for changes at positions 29-31) [compound of SEQ ID NO:260 (code 4055714)] | binds
APLEPVYPGDNATPEQMAQYAAALRRYINKLTRPRY (Synthetic analogue of human PP with Ala at position 23 and Lys at position 30) [compound of SEQ ID NO:167 (code 7214)] | binds
APLEPVYPGDNATPEQMAQYAADLRRYINMLTRPRF (ends and bridges not checked, Synthetic analogue of human PP; cited for changes at positions 34-36) [compound of SEQ ID NO:255 (code 4055708)] | binds
APLEPVYPGDNATPEQMAQYAADLRRYINFLTRPRY (ends and bridges not checked, Synthetic analogue of human PP; cited for changes at positions 29-31) [compound of SEQ ID NO:261 (code 4055715)] | binds
APLEPFYPGDNATPEQMAQYAADLRRYINMLTRPRY (ends and bridges not checked, Synthetic analogue of human PP; cited for a change at position 6) [compound of SEQ ID NO:275 (code 4055745)] | binds
APLEPVYPGDNATPEQMAQYAADLRRYINMLTRPHRY (ends and bridges not checked, Synthetic analogue of human PP; cited for changes at positions 34-36) [compound of SEQ ID NO:62 (code 6659)] | binds

The remaining lines, values ahead:

binding result | Binder
binds | PAPLEAVYPGDNATPEQMARYYSELRRYINKLTRPRY (ends and bridges not checked, Synthetic analogue of human PP; cited for Ala at position 5) [compound of SEQ ID NO:702 (code 4058286)]
binds | GAPLEPHAPGDNATPEEMAKYAAELRRYINKLTRPRY (ends and bridges not checked, Synthetic analogue of human PP; cited for a change at position 7) [compound of SEQ ID NO:1090 (code 4059937)]

Target: T1, human Y4 receptor
Assay: 125I-PP displacement assay, human Y4 receptor membranes; weaker reference compound

binding result | Binder
binds | AAPLEPVYPGDNATPEQMAQYAADLRRYINMLTRPRY (Synthetic analogue of human PP with an additional Ala at position 0) [compound of SEQ ID NO:9 (Ala 0, code 6433)]
binds | APLEPVYPGDNATPEQMAQYAAALRRYINMLTRPRY (Synthetic analogue of human PP with Ala at position 23) [compound of SEQ ID NO:277 (Ala 23, code 4055747)]
binds | APLEPVYPGDNATPEQMAKYAADLRRYINMLTRPRY (Synthetic analogue of human PP with Lys at position 19) [compound of SEQ ID NO:224 (Lys 19, code 4055291)]
binds | APLEPVYPGDNATPEQMAQYAADLRRYINKLTRPRY (Synthetic analogue of human PP with Lys at position 30) [compound of SEQ ID NO:281 (Lys 30, code 4055855)]
